Measurements taken from patent US20050245445A1 (BURNHAM INSTITUTE FOR MEDICAL RESEARCH, published 2005).
Where no end group is shown, it is not given here.

B1: fluorescein-conjugated RGR peptide (CRGRRST) (peptide)
peptide: CRGRRST
modifications: also: fluorescein-conjugated (site of attachment not given here)
notes: Synthetic linear peptide made by Fmoc chemistry and injected intravenously into RIP1-Tag2 mice; also called RGR-FITC; fluorescein-conjugated CRGRRST peptide

How the values were obtained:
[1] = target: PDGFRβ overexpressed on transfected 293T cells; experiment: phage binding to transfected 293T cells, 2 hours at 4° C., bound phage counted by plaque assay
[2] = target: T1, PDGFRβ in RIP1-Tag2 mouse tumor tissue (mouse, UniProt P05622 32-1098); experiment: co-localization of i.v. injected peptide with anti-PDGFRβ immunostaining in RIP1-Tag2 tumor sections
T1 construct: whole, on cells; Endogenous receptor in tissue, seen only by immunostaining; also called PDGFRb (CD140b)
Description: For immunohistochemistry, frozen slides were pre-incubated with blocking buffer (1×PNB from NEN Biosciences) for one hour, washed several times in 1×PBS and incubated with the primary antibody of interest overnight at 4° C. The cell-specific antibodies used were rat monoclonal anti-mouse CD31 (1:200; BD Pharmingen), rat monoclonal anti-mouse MECA-32 (1:200; BD Pharmingen), rabbit polyclonal anti-mouse NG2 (1:200; Chemicon), and rat monoclonal anti-mouse PDGFRb (CD140b) (1:200; eBioscience). The corresponding secondary antibodies; Cy-3 donkey anti-rabbit IgG and Rhodamine Red donkey anti-rat IgG (Jackson ImmunoResearch), were used at a 1:200 dilution and incubated for one hour at room temperature. The following species-matched immunoglobulins were used as negative controls; rabbit IgG (Vector Laboratories) and rat IgG (Jackson ImmunoResearch) at a 1:200 dilution. The slides were washed several times in 1×PBS and mounted in Vectashield Mounting Medium with DAPI (Vector Laboratories). Hematoxylin and eosin (H&E) staining was performed for histological grading of adjacent sections by standard methods, and lesions were graded as previously described (Lopez and Hanahan, 2002).
In contrast, no binding above background was detected toward cells transfected with vascular endothelial growth factor receptor 2 (VEGFR2) (FIG. 5A).

T1 sequence (P05622 32-1098): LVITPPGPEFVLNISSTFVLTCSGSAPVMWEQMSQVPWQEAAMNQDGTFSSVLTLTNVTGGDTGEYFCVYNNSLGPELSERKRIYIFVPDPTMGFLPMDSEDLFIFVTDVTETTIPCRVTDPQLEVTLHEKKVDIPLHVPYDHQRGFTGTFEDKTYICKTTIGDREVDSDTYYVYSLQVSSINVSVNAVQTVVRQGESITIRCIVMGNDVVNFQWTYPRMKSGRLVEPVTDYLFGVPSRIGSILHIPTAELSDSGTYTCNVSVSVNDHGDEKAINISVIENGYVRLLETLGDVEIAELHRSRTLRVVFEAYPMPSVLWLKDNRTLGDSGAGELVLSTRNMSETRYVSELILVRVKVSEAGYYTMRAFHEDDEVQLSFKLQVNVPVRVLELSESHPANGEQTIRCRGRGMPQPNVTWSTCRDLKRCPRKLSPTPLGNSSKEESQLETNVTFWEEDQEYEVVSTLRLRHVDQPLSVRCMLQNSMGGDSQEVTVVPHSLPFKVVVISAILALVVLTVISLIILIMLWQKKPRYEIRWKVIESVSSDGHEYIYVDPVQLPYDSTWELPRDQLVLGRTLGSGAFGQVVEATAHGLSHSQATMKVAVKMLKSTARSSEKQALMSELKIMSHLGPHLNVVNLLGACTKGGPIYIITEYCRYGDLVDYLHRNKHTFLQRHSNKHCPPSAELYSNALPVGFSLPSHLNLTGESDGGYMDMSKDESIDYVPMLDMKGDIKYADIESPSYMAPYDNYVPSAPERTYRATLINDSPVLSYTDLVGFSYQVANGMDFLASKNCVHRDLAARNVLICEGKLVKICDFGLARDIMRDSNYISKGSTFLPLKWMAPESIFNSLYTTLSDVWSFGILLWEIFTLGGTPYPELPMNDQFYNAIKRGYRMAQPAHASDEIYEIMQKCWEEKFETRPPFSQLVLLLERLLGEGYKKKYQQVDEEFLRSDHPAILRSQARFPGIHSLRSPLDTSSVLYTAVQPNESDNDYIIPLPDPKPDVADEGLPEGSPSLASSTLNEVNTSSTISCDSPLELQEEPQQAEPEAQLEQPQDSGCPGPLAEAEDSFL

Row | Binder | fold binding to PDGFRβ-transfected cells over non-transfected cells [1] | binding result [2]
1 | CRGRRST [RGR phage (T7 phage displaying the RGR peptide CRGRRST)] | 20 fold | –
2 | B1 | – | binds
